Source: US7083962B2, “Carbonyl reductases, polynucleotides comprising DNA encoding the same, methods for producing the same, and methods for producing optically active alcohol utilizing the same” (Daicel Chemical Industries Ltd., priority 2004, dated 2006)

Key:
carbonyl reductase [1] = assay: Substrate specificity: NADPH-dependent reduction by the carbonyl reductase obtained in Example 1; assay type: biochemical, Torulaspora delbrueckii; conditions: substrate 5 mM, coenzyme NADPH; reduction of 3,4-dimethoxyphenylacetone regarded as 100
Procedure: (§1) A reaction solution comprising 50 mM potassium phosphate buffer (pH 6.5), 0.2 mM NADPH, 5 mM 3,4-dimethoxyphenylacetone, and an enzyme is reacted at 30° C. Any decrease in absorbance at 340 nm accompanying a decrease in NADPH is measured. 1U is defined as the amount of enzyme which catalyzes a 1 μmol decrease of NADPH in one minute.
(§2) The enzyme obtained in Example 1 was reacted with various ketones, ketoesters, and soon. The activities of the reduction reactions were expressed as relative activities, where the reduction of 3,4-dimethoxyphenylacetone was regarded as 100 (Table 2) (substrate specificity of carbonyl reductase). The activity of dehydrogenating 1-(3,4-dimethoxyphenyl)-2-propanol was measured as follows: A reaction was performed at 30° C. in a reaction solution comprising 50 mM Tris-HCl buffer (pH 8.5), 2.5 mM NADP^+, 5 mM 1-(3,4-dimethoxyphenyl)-2-propanol, and the enzyme. An increase in absorbance at 340 nm, accompanying NADPH production, was measured. 1 U was defined as the amount of enzyme catalyzing the production of 1 μmol NADPH per minute. In addition, the activity of reducing NADH-dependent 3,4-dimethoxyphenylacetone was measured as follows: A reaction was performed at 30° C. in a reaction solution comprising 50 mM potassium phosphate buffer (pH 6.5), 0.2 mM NADH, 5 mM 3,4-dimethoxyphenylacetone, and the enzyme, and decrease in absorbance at 340 nm, accompanying decrease in NADH, was measured. 1 U was defined as the amount of enzyme catalyzing a decrease of 1 μmol NADH per minute.

carbonyl reductase [2] = assay: NADH-dependent 3,4-dimethoxyphenylacetone-reducing activity; assay type: biochemical, Torulaspora delbrueckii; conditions: substrate 5 mM, coenzyme NADH, pH 6.5, 30° C.
Procedure: as §2

[3] = 3,4-dimethoxyphenylacetone-reducing activity of the purified enzyme (specific activity, pH and temperature dependency); assay type: biochemical, Torulaspora delbrueckii; conditions: 3,4-dimethoxyphenylacetone reduction, NADPH, pH 6.5, 30° C.
Procedure: as §1
The specific activity of the purified enzyme was 196 mU/mg.
By changing the pH using potassium phosphate buffer, sodium acetate buffer, and Britton-Robinson buffer, the 3,4-dimethoxyphenylacetone-reducing activity of the enzyme obtained in Example 1 was investigated. Activity at each pH was expressed as a relative activity, where the maximum activity was regarded as 100 (FIG. 2). Optimal pH (showing 80% or more relative activity) was 5.5 to 6.5.
Of the standard reaction conditions, only the temperature was changed, and the 3,4-dimethoxyphenylacetone-reducing activity of the enzyme obtained in Example 1 was then measured. Activity at each temperature was expressed as a relative activity, where the maximum activity was regarded as 100 (FIG. 3). Optimal temperature (showing 80% or more relative activity) was 50° C. to 55° C.

[4] = Enzymatic synthesis of (S)-1-(3,4-dimethoxyphenyl)-2-propanol: optical purity and reaction yield; assay type: biochemical; conditions: 0.25 U carbonyl reductase, 50 mM 3,4-dimethoxyphenylacetone, overnight, 25° C., pH 6.5
Procedure: A reaction was performed overnight at 25° C. in 1 mL of a reaction solution comprising 200 mM potassium phosphate buffer (pH 6.5), 1 mM NADP^+, 2 U glucose dehydroganase (Wako Pure Chemical Industries, Ltd.), 250 mM glucose, 0.25 U carbonyl reductase, and 50 mM 3,4-dimethoxyphenylacetone. The optical purity of the produced (S)-1-(3,4-dimethoxyphenyl)-2-propanol was measured as follows: One mL of ethyl acetate was added to 0.5 mL of the reaction solution to extract (S)-1-(3,4-dimethoxyphenyl)-2-propanol, and the extraction solvent was desolvated. 0.5 mL of a dissolving solution (n-hexane: isopropanol=4:1) was then added to dissolve the extract, which was then analyzed by liquid chromatography using an optical resolution column. CHIRALCEL OF (4.6 mm×25 cm; Daicel Chemical Industries, Ltd.) was used as the optical resolution column. Chromatography was performed with a wavelength of 220 nm, a flow rate of 1.0 mL/min, and at 40° C. using an eluting solution of n-hexane: isopropanol=4:1.
In addition, the (S)-1-(3,4-dimethoxyphenyl)-2-propanol thus-produced was quantified using gas chromatography, and a yield relative to the raw starting material, 3,4-dimethoxyphenylacetone, was obtained. Specifically, the analysis was performed at a column temperature of 210° C., using Thermon 3000 (10%)-Chromosorb W (AW-DMCS, Mesh 60–80; 3.2 mm×210 cm) with a hydrogen flame ionization detector (FID). The resulting reaction yield was about 95%.
To prepare crude enzyme solution for enzyme reaction, the crude enzyme solution prepared in Example 18 was concentrated ten-folds using a UF membrane. This solution was reacted overnight at 25° C. in 1 mL of a reaction solution comprising 200 mM potassium phosphate buffer (pH 6.5), 1 mM NADP^+, 2 U glucose dehydrogenase (Wako Pure Chemical Industries, Ltd.), 250 mM glucose, 0.2 U homolog enzyme, and 50 mM 3,4-dimethoxyphenylacetone. Optical purity was measured and the produced (S)-1-(3,4-dimethoxyphenyl)-2-propanol was quantified as in Example 6. As a result, YGL157w (pSE-YGP7) produced 93.7% ee (S)-1-(3,4-dimethoxyphenyl)-2-propanol at a yield of 66%, YGL039w (pSE-YGD9) produced 93.6% ee at a yield of 94%, and YDR541c (pSE-YDR1) produced 94.8% ee at a yield of 6%.

Molecule	Relative activity (carbonyl reductase [1])	Relative activity (carbonyl reductase [2])	Specific activity of the purified enzyme [3]	Optical purity of the produced (S)-1-(3,4-dimethoxyphenyl)-2-propanol [4]	Reaction yield relative to 3,4-dimethoxyphenylacetone [4]
COc1ccc(CC(C)=O)cc1OC [3,4-Dimethoxyphenylacetone]	100%	0.0%	–	–	–
carbonyl reductase: NADPH-dependent carbonyl reductase purified from Torulaspora delbrueckii JCM 5921; amino acid sequence SEQ ID NO: 2 (protein, listed as Torulaspora delbrueckii) MSILVSGATGFIALHVVSDLLKQDYKVIGTVRSQEKADKLRKQFGNNPNLSFELVSDIAAPEAFDKVFQKHGKDIKVVLHTASPFTLETTNYEKDLLLPAVNGTKSILESIKKYAADSVERVVITSSYAAVMNVSKEGDGSIVYTEKDWNPATWENCQIDGLNAYCGSKKLAEKAAWDFFEDNKNVVKFKLSMINPTYVFGPQLFDEDVKDKLNTSCELINSIIKNNPQVGYLLENIKGHFVDVRDVAKAHLVAFQKDEAIGQRLLTSNGRFAYQDLVDIINEDFPQLKGKVIVGKPGAGKQLYGTFPDINNTRSKEILGFEFISLHKSVHDTAAQVLKKEGKL	–	–	196 mU/mg	≥ 99 % ee	about 95%
